Measured values published in US20220177587A1, “METHODS AND USES OF VARIANT CD80 FUSION PROTEINS AND RELATED CONSTRUCTS” (Alpine Immune Sciences, Inc., priority 2018, published 2022).
Read-outs that look alike come from different tables or passages of the source.

How the values were obtained:
[1] = biological target: PD-L1 (human) (UniProt Q9NZQ7); test: flow cytometry, CHO cells expressing PD-L1
Target sequence in this assay (Q9NZQ7 19-290): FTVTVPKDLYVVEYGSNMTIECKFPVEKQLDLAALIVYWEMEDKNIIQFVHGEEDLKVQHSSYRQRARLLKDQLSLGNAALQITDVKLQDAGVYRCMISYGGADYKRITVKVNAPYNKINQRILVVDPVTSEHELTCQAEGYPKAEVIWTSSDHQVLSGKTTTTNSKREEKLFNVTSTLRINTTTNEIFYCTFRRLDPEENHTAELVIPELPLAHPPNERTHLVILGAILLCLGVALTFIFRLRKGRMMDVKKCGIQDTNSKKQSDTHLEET

[2] = biological target: CD28 (human) (UniProt P10747); test: flow cytometry, Jurkat cells (CD28)
[3] = biological target: PD-L1 (human) (UniProt Q9NZQ7); test: flow cytometry, CHO cells stably expressing PD-L1
[4] = biological target: human CTLA-4 (human) (UniProt P16410); test: flow cytometry, CHO cells stably expressing CTLA4
[5] = biological target: CD28 (human) (UniProt P10747); test: flow cytometry, Jurkat cells (CD28); remark: listed apart in the source
[6] = biological target: PD-L1 (human) (UniProt Q9NZQ7)
Target sequence in this assay (Q9NZQ7 19-290): as above

[7] = biological target: CD28 (human) (UniProt P10747)

Sequence of human CTLA-4 (human) (P16410 36-223): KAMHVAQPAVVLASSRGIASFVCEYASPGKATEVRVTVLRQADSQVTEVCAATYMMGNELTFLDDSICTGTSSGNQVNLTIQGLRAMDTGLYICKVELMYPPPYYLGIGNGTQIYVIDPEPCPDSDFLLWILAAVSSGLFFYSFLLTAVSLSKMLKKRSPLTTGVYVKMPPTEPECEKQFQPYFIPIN

| Substance | MFI at 33.3 nM [3] [MFI] | MFI at 33.3 nM [4] [MFI] | MFI at 33.3 nM [5] [MFI] | Jurkat/IL2 reporter RLU at 50 nM, K562/OKT3/PD-L1 aAPC [6] [RLU] | Jurkat/IL2 reporter RLU at 50 nM, K562/OKT3/PD-L1 aAPC [7] [RLU] | other results |
| --- | --- | --- | --- | --- | --- | --- |
| CD80 V22D/E24D/E35D/M47L/V68M IgV-Fc (Fc fusion) | – | – | – | – | – | MFI at 33.3 nM [1]: 15400 MFI; MFI at 33.3 nM [2]: 1250 MFI |
| CD80 V22D/E24D/E35D/M47L/V68M/L85M/D90G IgV-Fc (Fc fusion) | – | – | – | – | – | MFI at 33.3 nM [1]: 19000 MFI; MFI at 33.3 nM [2]: 1180 MFI |
| variant CD80 IgV-Fc H18Y/M47L/V68M/A71G/D90G (Fc fusion) | 29500 | 22200 | – | – | – | – |
| variant CD80 IgV-Fc A26E/E35D/M47L/V68M/D90G (Fc fusion) | 25000 | 26700 | – | – | – | – |
| CD80 Y31S/E35D/M47L/T79L/E88G IgV-Fc (inert) (Fc fusion) | – | – | – | 496 | 496 | – |
| variant CD80 IgV-Fc E35D/M47L/V68M/A71G (Fc fusion) | 27900 | 24700 | 806 | – | – | Fold change to WT CD80 [3]: 639 fold; Fold change to WT CD80 [4]: 18.1 fold |
| CD80 A26E/E35D/M43I/M47L/L85Q/K86E/R94W IgV-Fc (inert) (Fc fusion) | – | – | – | 498 | 498 | – |
| variant CD80 IgV-Fc H18Y/M47L/V68M/A71G (Fc fusion) | 28500 | – | 1190 | – | – | – |
| variant CD80 IgV-Fc H18Y/A26E/E35D/M47L/A71G/D90G (Fc fusion) | 16900 | – | – | – | – | – |
| CD80 E35D/M47I/K54R/L85E IgV-Fc (inert) (Fc fusion) | – | – | – | 602 | 602 | – |
| CD80 V22A/E23D/Q33L/E35D/M47V IgV-Fc (inert) (Fc fusion) | – | – | – | 390 | 390 | – |
| CD80 E7D/E35D/M47I/L97Q IgV-Fc (inert) (Fc fusion) | – | – | – | 1240 | 1240 | – |
| CD80 T13R/E35D/M47L/V68M IgV-Fc (Fc fusion) | – | – | – | – | – | MFI at 33.3 nM [1]: 20000 MFI; MFI at 33.3 nM [2]: 15.6 MFI |
| CD80 Q33R/E35D/K37E/M47V/L85Q IgV-Fc (inert) (Fc fusion) | – | – | – | 464 | 464 | – |
| CD80 A26E/Q33R/E35D/M47L/L85Q/K86E IgV-Fc (inert) (Fc fusion) | – | – | – | 569 | 569 | – |
| CD80 E35D/M47I/V68M/Y87N IgV-Fc (Fc fusion) | – | – | – | – | – | MFI at 33.3 nM [1]: 13100 MFI |
| CD80 E35D/D46E/M47L/V68M/T79M/L85M IgV-Fc (Fc fusion) | – | – | – | – | – | MFI at 33.3 nM [1]: 8640 MFI; MFI at 33.3 nM [2]: 403 MFI |
| variant CD80 IgV-Fc H18Y/A26E/M47L/V68M/A71G/D90G (Fc fusion) | 31700 | 121 | 2560 | – | – | Fold change to WT CD80 [3]: 727 fold; Fold change to WT CD80 [5]: 58.2 fold |
| CD80 IgV-Fc A26E/Q27R/E35D/M47L/N48Y/L85Q (Fc fusion) | – | – | – | – | – | MFI at 33.3 nM [2]: 78 MFI |
| CD80 E35D/D46E/M47L/V68M/A71G/Y87C/K93R IgV-Fc (Fc fusion) | – | – | – | – | – | MFI at 33.3 nM [1]: 24300 MFI |
| variant CD80 IgV-Fc E35D/V68M/A71G/D90G (Fc fusion) | 28000 | 23300 | 2840 | – | – | – |
| variant CD80 IgV-Fc A26E/E35D/M47L/A71G/D90G (Fc fusion) | 14600 | 22100 | 1270 | – | – | – |

Second part, led by results:

| MFI at 33.3 nM [3] [MFI] | MFI at 33.3 nM [4] [MFI] | MFI at 33.3 nM [5] [MFI] | Jurkat/IL2 reporter RLU at 50 nM, K562/OKT3/PD-L1 aAPC [6] [RLU] | Jurkat/IL2 reporter RLU at 50 nM, K562/OKT3/PD-L1 aAPC [7] [RLU] | Substance | other results |
| --- | --- | --- | --- | --- | --- | --- |
| 1670 | 3230 | 98.7 | – | – | variant CD80 IgV-Fc A26E/M47L/V68M/A71G (Fc fusion) | – |
| 12600 | – | 135 | – | – | variant CD80 IgV-Fc A26E/E35D/V68M/A71G (Fc fusion) | – |
| – | – | – | 438 | 438 | CD80 E35D/M47V/T62A/A71G/V83A/Y87H/L97M IgV-Fc (inert) (Fc fusion) | – |
| – | – | – | 513 | 513 | CD80 Q27H/E35D/M47L/L85Q/R94Q/E95K IgV-Fc (inert) (Fc fusion) | – |
| – | – | – | 393 | 393 | CD80 Q33L/E35D/M47V IgV-Fc (inert) (Fc fusion) | – |
| 28100 | 21800 | 2790 | – | – | variant CD80 IgV-Fc A26E/M47L/V68M/A71G/D90G (Fc fusion) | – |
| – | – | – | 432 | 432 | CD80 Q33L/E35D/M47I/L85Q IgV-Fc (inert) (Fc fusion) | – |
| – | – | – | 2650 | 2650 | CD80 H18L/V22A/E35D/M47L/N48T/L85Q IgV-Fc (inert) (Fc fusion) | – |
| 28500 | 25400 | 526 | – | – | variant CD80 IgV-Fc H18Y/A26E/E35D/M47L/V68M/A71G (Fc fusion) | Fold change to WT CD80 [3]: 655 fold; Fold change to WT CD80 [4]: 18.7 fold |
| – | – | – | 415 | 415 | CD80 Q33K/E35D/M47V/K89E/K93R IgV-Fc (inert) (Fc fusion) | – |
| – | – | – | 527 | 527 | CD80 Q33L/E35D/M47V/T79A IgV-Fc (inert) (Fc fusion) | – |
| 29400 | 26000 | 3070 | – | – | variant CD80 IgV-Fc E35D/M47L/V68M/A71G/D90G (Fc fusion) | – |
| 10000 | – | – | – | – | variant CD80 IgV-Fc H18Y/A26E/E35D/D90G (Fc fusion) | – |
| – | 19900 | 2000 | – | – | variant CD80 IgV-Fc H18Y/A26E/A71G/D90G (Fc fusion) | – |
| 10600 | 21900 | 2580 | – | – | variant CD80 IgV-Fc A26E/M47L/V68M/D90G (Fc fusion) | – |
| 27400 | – | 3390 | – | – | variant CD80 IgV-Fc H18Y/E35D/M47L/V68M/D90G (Fc fusion) | – |
| 27800 | 24600 | 417 | – | – | variant CD80 IgV-Fc A26E/E35D/M47L/V68M/A71G (Fc fusion) | Fold change to WT CD80 [3]: 638 fold; Fold change to WT CD80 [4]: 18.1 fold |
| 17900 | 20900 | 372 | – | – | variant CD80 IgV-Fc H18Y/A26E/E35D/V68M (Fc fusion) | – |
| 13300 | 23000 | 1270 | – | – | variant CD80 IgV-Fc H18Y/E35D/M47L/A71G/D90G (Fc fusion) | Fold change to WT CD80 [3]: 306 fold; Fold change to WT CD80 [4]: 16.9 fold |
| 10800 | 18200 | 1600 | – | – | variant CD80 IgV-Fc H18Y/M47L/A71G/D90G (Fc fusion) | – |
| 11900 | 22400 | – | – | – | variant CD80 IgV-Fc H18Y/E35D/M47L/A71G (Fc fusion) | – |
| 6380 | – | 42.3 | – | – | CD80 ECD-Fc (Fc fusion) | – |
| 30100 | 24300 | 2720 | – | – | variant CD80 IgV-Fc H18Y/E35D/V68M/A71G/D90G (Fc fusion) | – |
